In IntAct's records for PubMed 29125462:

B1: RILP-like protein 1 (Homo sapiens), Q5EBL4 (parent)
chain: MEEERGSALAAESALEKNVAELTVMDVYDIASLVGHEFERVIDQHGCEAIARLMPKVVRVLEILEVLVSRHHVAPELDELRLELDRLRLERMDRIEKERKHQKELELVEDVWRGEAQDLLSQIAQLQEENKQLMTNLSHKDVNFSEEEFQKHEGMSERERQVMKKLKEVVDKQRDEIRAKDRELGLKNEDVEALQQQQTRLMKINHDLRHRVTVVEAQGKALIEQKVELEADLQTKEQEMGSLRAELGKLRERLQGEHSQNGEEEPETEPVGEESISDAEKVAMDLKDPNRPRFTLQELRDVLHERNELKSKVFLLQEELAYYKSEEMEEENRIPQPPPIAHPRTSPQPESGIKRLFSFFSRDKKRLANTQRNVHIQESFGQWANTHRDDGYTEQGQEALQHL
B2: RILP-like protein 2 (Homo sapiens), Q969X0 (parent)
chain: MEEPPVREEEEEEGEEDEERDEVGPEGALGKSPFQLTAEDVYDISYLLGRELMALGSDPRVTQLQFKVVRVLEMLEALVNEGSLALEELKMERDHLRKEVEGLRRQSPPASGEVNLGPNKMVVDLTDPNRPRFTLQELRDVLQERNKLKSQLLVVQEELQCYKSGLIPPREGPGGRREKDAVVTSAKNAGRNKEEKTIIKKLFFFRSGKQT

Variants of: B1
Settings: with rab8a_human RAB8A

Effect of a mutation on the interaction, disrupting interaction strength:
K310E
R293E
R291E

Variants of: B2
Settings: with rab8a_human RAB8A

Effect of a mutation on the interaction, disrupting interaction strength:
R130E
R132E
K149E
